Legend:
[1] = Optimum pH/temperature, pH stability and heat stability of sorbitol kinase; format: physicochemical, Erwinia sp. SK-472-20
Protocol: One milliliter of a reaction mixture consisting of 0.2M Tris-HCl buffer solution (pH 8.5) 0.2 ml, 0.1M ATP 0.02 ml, 0.1M MgCl2 0.02 ml, 100 U/ml sorbitol-6-phosphate dehydrogenase (refer to referential example) 0.05 ml, 10 mM NAD 0.1 ml, 100 U/ml diaphorase (Asahi Chemical Ind. Co.) 0.05 ml, 0.25% NTB 0.1 ml, 1M sorbitol 0.1 ml, 10% Triton X-100 0.01 ml and distilled water 0.3 ml was pre-heated at 37° C. for 1 minute, and the enzyme solution 20 μl was added thereto, then the mixture was incubated for 10 minutes.
Reaction was terminated by adding 0.1N HCl 2 ml and optical density of the mixture was measured using 1.0 cm cell at 550 nm within 5 minutes (As). Also optical density of distilled water 20 μl in place of the enzyme solution was measured in the same manner as above as a blank test (Ab). Enzymatic activity is determined by difference in the absorption between the optical density of the enzyme solution (As) and the blank test (Ab), i.e. (As-Ab). A unit of enzyme activity is defined as an amount of enzyme which generate 1 μm of reduced NAD in one minutes at 37° C. and calculated by the following equation.
Optimum pH is measured by the above enzyme assay method. In FIG. 1, 100 mM phosphate buffer is used for pH 6.0-8.0 (-.largecircle.-); 100 mM Tris-HCl buffer for pH 7.0-9.0 (-.circle-solid.-); and 100 mM glycine-sodium hydroxide buffer for pH 9.0-10.5 (-.quadrature.-). Optimum pH is 8.5-9.5.
100 mM buffer solutions containing sorbitol kinase 0.5 U/ml were treated at 60° C. for 15 minutes, and remaining activity was measured by the above enzyme assay method. In FIG. 2, 100 mM acetate buffer is used for pH 4.5-6.0 (-.largecircle.-); 100 mM phosphate buffer for pH 6.0-8.0 (-.circle-solid.-); 100 mM Tris-HCl buffer for pH 7.0-8.5 (-.quadrature.-); and 100 mM glycine-sodium hydroxide buffer for pH 9.0-10.5 (-.box-solid.-). Most preferable stability is observed at pH 6.5-10.0.
Optimum temperature of the enzyme was measured by changing temperature range at 37° C.-60° C. according to the above assay method. Result is shown in FIG. 3, in which optimum temperature of the present enzyme is approx. 50° C.
100 mM Tris-HCl buffer solution (pH 8.5) containing sorbitol kinase 0.5 U/ml was treated at various temperatures for 15 minutes, and remaining activity was measured by the above enzyme assay method. Results are shown in FIG. 4 in which the enzyme is stable at least up to 60° C.

[2] = Isoelectric point of sorbitol kinase (electrophoresis using carrier ampholytes); format: physicochemical, Erwinia sp. SK-472-20
Source text: 4.8±0.5 (electrophoresis using carrier ampholytes)

[3] = Physico-chemical properties of sorbitol kinase produced by the transformant; format: physicochemical, Erwinia sp. SK-472-20 gene expressed in E.coli; conditions: enzyme produced by transformant

B1: sorbitol kinase: ATP-utilizing sorbitol kinase of Erwinia sp. SK-472-20, stable up to 60° C., amino acids 1 to 313 of SEQ ID NO: 1; also produced by E.coli transformant (protein)
chain: MRIGIDLGGTKTEVIALSEQGEQLFRHRLPTPRDDYHQTIETIARLVDMAEQATGQTGTVGMGIPGSISPYTGVVKNANSTWLNGQPFDKDLSQRLNREVRLANDANCLAVSEAIDGAAAGAQTVFAVIIGTGCGAGVALGGRAHIGGNGTAGEWGHNPLPWMDEDELKYRAEVPCYCGKQGCIETFISGTGFATDYHRLSGQPLKGNEIMRRVGEHDPVAELALSRYEMRLAKSLAHVVNILDPDVIVLGGGMSNVDRLYATVPNLVKQWVFGGECETPIRKRCTGTPAACAAPRGSGRYSHSPSPYVRGAG
**Q.** Which “Heat stability (stable up to)” value ([1]; 100 mM Tris-HCl pH 8.5, 0.5 U/ml, 15 minutes, remaining activity, FIG. 4) does the source give for B1 here?
**A.** ≥ 60 °C

**Q.** And the “Optimum pH” value ([1]; 100 mM phosphate, Tris-HCl, glycine-sodium hydroxide buffers, FIG. 1)?
**A.** 8.5-9.5

**Q.** And the “pH stability (most preferable stability)” value ([1]; 0.5 U/ml in 100 mM buffers, 60° C. for 15 minutes, remaining activity, FIG. 2)?
**A.** 6.5-10.0

**Q.** What about the Optimum temperature ([1]; range 37° C.-60° C., FIG. 3) of the same molecule?
**A.** approx. 50 °C

**Q.** What about the Isoelectric point [2] of the same molecule?
**A.** 4.8±0.5

**Q.** And the “Heat stability (stable up to)” value [3]?
**A.** up to 60 °C

**Q.** What about the Isoelectric point [3] of the same molecule?
**A.** 4.80±0.5

**Q.** What about the “Optimum pH” value [3] of the same molecule?
**A.** 8.5-9.5

**Q.** And the pH stability [3]?
**A.** 6.5-10.0
